The results in this text go back to US20250206828A1, “ANTI-ADENOSINE RECEPTOR (A2aR) ANTIBODIES AND THE USE THEREOF” (Adept Therapeutics Inc., priority 2022, published 2025).

The test system of assay [1] is human PBMCs (CD4 T, CD8 T, NK cells). Description: Restoration of IFN-γ and IL-2 production of NECA-suppressed T cells and NK cells (intracellular cytokine staining). Format: cell-based. Particulars: for % of cells IFNγ+, CD4 T cells / % of cells IFNγ+, CD8 T cells / % of cells IFNγ+, NK cells / % of cells IL-2+, CD4 T cells / % of cells IL-2+, CD8 T cells: NECA, test substance 1 μg/ml; for restored production of IFN-γ and IL-2 by NECA-suppressed CD8 T cell: compared with AB928, CPI-444 and AZD4635; for restored production of IFN-γ and IL-2 by NECA-suppressed NK cells: compared with the tested small molecule inhibitors. How it is done: (§1) Two hundred thousand (2×10^5) human peripheral blood mononuclear cells (PBMCs) human PBMC in complete IMDM medium were aliquoted into each well in a 96-well plate and the cells in the 96-well plate were pre-incubated with antibodies or small molecule inhibitors at indicated concentration for 90 minutes, followed by addition of T cell activator anti-CD3/28 dynabeads (Gibco, Cat #11132D) at ratio of 1:4 (Beads: PBMC, v/v) and NECA (DiscoverX, Cat #92-1191, final concentration […]). Cells were cultured in an incubator at 37° C., 5% CO2 for 24 hours. Cells were then collected and stimulated with anti-CD3/28 dynabeads in the presence of GolgiPlug™ Protein Transport Inhibitor (BD Biosciences, Cat #555028) according to manufacturer's manual for 4 hours. Thereafter, cells were incubated with human TruStain FcX block (Biolegend, Cat #422302) and True-Stain monocyte blocker (Biolegend, Cat #426103) for 15 minutes according the manufacturer's manual, and cells were then stained with surface markers PE-anti-CD4 (Biolegend, Cat #300550), PerCP-cy5.5-anti-CD8 (Biolegend, Cat #301032), APC/cy7-anti-CD3 (Biolegend, Cat #300426) and PE/cy7-anti-CD56 (Biolegend, Cat #362509), PE/cy7-anti-CD56 (Biolegend, Cat #362509), BV711-anti-CD25 (Biolegend, Cat #302636) and BV605-anti-CD69 (Biolegend, Cat #31938 After wash with FACS buffer, cells were stained with BV421-anti-IFN-γ (BD Bioscience, Cat #562988) and APC anti-IL-2 (BD Bioscience, cat #551383) using intracellular cytokine staining kit (BD Biosciences, cat #555028) following manufacturer's instruction. Stained samples were analyzed on FACSAria III machine. Data were analyzed using Flowjo software.

Assay [2] addresses human A2aR-expressing HEK293 cells (Homo sapiens, UniProt P29274). Description: Flow cytometry based internalization assay. The format is cell-based. Particulars: 1, 0.5 and 0.25 μg/ml, 1, 2 and 4 hours at 37° C. As for the experimental part:
2×10^5/well freshly cultured human A2aR-expressing HEK293 cells (BPS Bioscience) were incubated with antibodies to be tested at indicated concentration (1, 0.5 and 0.25 μg/ml) on ice for 45 minutes. Parental 3F6 were used as positive control. After wash with FACS buffer, samples were split into 4 sets. One set of samples were maintained on ice. The other three sets of samples were left in 37° C., 5% CO2 incubator for further incubation for 1, 2 and 4 hours. All four sets of samples were followed by staining with PE-conjugated goat-anti-human Fc antibody (1:400, Jackson Immuno Research, Cat. 109-116-098) for 30 minutes, and then washed with cold FACS buffer, cells were then stained with 1:100 diluted 7−AAD (Biolegend) and then fixed with 2% of paraformaldehyde (diluted from 10% paraformaldehyde (MilliporeSigma, Cat. R04586)). All samples were analyzed on Guava 11HT or 5HT (Luminex). The mean fluorescence intensity (MFI) was obtained and data was analyzed using Flowjo software. Internalization rate was calculated as: […]
On the technique in general: Flow cytometry measures light scatter and fluorescence of single cells or particles in a stream.

For assay [3], the target named is T1, human A2aR on the cell surface of human PBMCs (Homo sapiens, UniProt P29274).
T1 construct: host or cells: human PBMCs (CD4 T, CD8 T, NK, NKT subsets)
In words: Binding of anti-A2aR antibodies to human PBMC subsets (CD4 T, CD8 T, NK, NKT cells; FACS). Particulars: for binding to human T cells (CD4, CD8), NK cells and NKT cells: human PBMCs, FACS. How it is done: Human and cynomolgus PBMCs were purchased from Cytologics LLC (San Diego, CA) and iQ Biosciences (Berkeley, CA), respectively. 10^6 human and/or cynomolgus PBMCs in 100 μl FACS buffer (1×DPBS, 2% FBS) were incubated with anti-A2aR antibodies at 4° C. for 30 minutes. After wash, samples were stained with PE-conjugated goat-anti-human Fc antibody (1:400, Jackson ImmunoResearch Labs, Cat. 109-116-098) and other surface markers using cynomolgus cross-reactive APC/cy7-anti-CD3 (BD Bioscience, Cat. 557757), BV421-anti-CD4 (Biolegend, Cat. 317433), BV650-anti-CD8 (Biolegend, Cat. 301042) and BV711-anti-CD56 (BD Bioscience, Cat. 742661) for 30 minutes, and Zombie Green fixable Viability dye (Biolegend, Cat. 423111) were used according to manufacturer's instruction to define live immune cell subsets. After wash with FACS buffer, cells were analyzed on FACSAria (BD). Data was analyzed using Flowjo (Becton Dickinson).

The target of another assay is human A2aR (Homo sapiens, UniProt P29274). Description: In vitro blocking activity of purified humanized anti-A2aR antibodies and SMIs (cAMP-Glo, adenosine or NECA). Format: cell-based. Particulars: purified antibodies. As for the experimental part: The activity of A2aR is mediated by Gas protein which activates adenylyl cyclase, resulting in the synthesis of intracellular cAMP. The level of cAMP correlates with the respective adenosine (agonist) level. cAMP can be detected using a variety of commercial cAMP assay kit.
Briefly, clear flat bottom 96 well tissue culture plate (Fisher Scientific) was coated with 50 μl per well of 50 µg/ml poly-D-lysine (Gibco, Cat. A3890401) solution at 4° C. overnight. After 3 washes with sterile endotoxin free water, the coated culture plate was left uncovered in a biosafety cabinet to dry. Freshly thawed A2aR-overexpressing HEK293 cell (BPS Bioscience) were seeded on poly-D-lysine coated plates at 10^4/well in 100 μl culture medium for 24 hours in 37° C., 5% CO2 incubator. After wash with warmed PBS once, one hundred microliters (100 μl) starvation medium (MEM (Hyclone Cat. SH30024.01)+2% charcoal stripped serum (Thermo Fisher, Cat. A3382101)+1% Penicillin/Streptomycin) were added for overnight culture in an incubator at 37° C. and 5% CO2. […] Plates were read to obtain Relative Light Unit (RLU) on SpectraMax 5 reader (Molecular Device). Data were analyzed using Prism software.

The test system of assay [4] is human PBMCs (CD4 and CD8 T cells). Description: Restoration of CD25 and CD69 activation markers on NECA-suppressed CD4 and CD8 T cells. Format: cell-based. The note with it: test substance 1 μg/ml. As for the experimental part: as §1

T1 sequence (P29274 whole entry): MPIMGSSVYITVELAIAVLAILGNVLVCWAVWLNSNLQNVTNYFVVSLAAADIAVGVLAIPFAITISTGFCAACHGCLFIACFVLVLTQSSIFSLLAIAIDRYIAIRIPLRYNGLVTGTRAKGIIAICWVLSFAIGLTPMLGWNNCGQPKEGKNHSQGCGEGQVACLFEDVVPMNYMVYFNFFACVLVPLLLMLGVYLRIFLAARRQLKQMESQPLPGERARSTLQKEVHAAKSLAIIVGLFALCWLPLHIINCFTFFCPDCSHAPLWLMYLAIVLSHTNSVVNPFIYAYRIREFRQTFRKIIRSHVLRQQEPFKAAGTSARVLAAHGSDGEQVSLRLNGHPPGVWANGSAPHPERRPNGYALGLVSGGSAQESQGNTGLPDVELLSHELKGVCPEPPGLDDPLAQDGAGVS
Sequence of human A2aR-expressing HEK293 cells (P29274 whole entry): as above
Sequence of human A2aR (P29274 whole entry): as above

B1: Hu3F6-H3/Hu3F6-L5: humanized anti-A2aR IgG1 FES antibody; HCVR SEQ ID NO:60, LCVR SEQ ID NO:80 (antibody, V domains shown)
VH: EVQLVQSGAEVKKPGASVKVSCKTSGFAFTSYWMNWVRQAPGQGLEWIGRIDPSDSEAHYHHKFWGRATLTVDTSSSTVYMELSSLRSEDTAVYYCLRSLYGKGDYWGHGTTVTVSS
VL: DVVMTQTPLSLSVTPGQPASISCRSSQSLVHRNGNTYLEWYLQKPGQSPQLLIYKVSNRFSGVPDRFSGSGSGTDFTLKISRVEAEDVGVYYCYQGSHVPLTFGGGTKVEIK
Regarding B1, in assay [1], the “% of cells IFNγ+, CD4 T cells” value was found to be 4.35%; the “% of cells IFNγ+, CD8 T cells” value amounted to 14.1%; the “% of cells IFNγ+, NK cells” value came out at 17.8%; the “% of cells IL-2+, CD4 T cells” value was 13.4%. In assay [1], the “% of cells IL-2+, CD8 T cells” value is given as 3.29%; the “restored production of IFN-γ and IL-2 by NECA-suppressed CD8 T cell” value was “restored production of IFN-γ and IL-2 by NECA-suppressed CD8 T cell, with higher potency”; the “restored production of IFN-γ and IL-2 by NECA-suppressed NK cells” value is “restored production of IFN-γ and IL-2 by NECA-suppressed NK cells, with a potency higher”. In assay [2], the “internalization upon binding to cell surface A2aR (percentage of internalization, FIG. 2)” value is on record as “induce internalization upon binding to cell surface A2aR”. For the same molecule, in assay [3] (human 1 PBMC), the “% of A2aR+ CD4+ T cells” value came to 0.43%, the “% of A2aR+ CD8+ T cells” value is listed as 0.04%, the “% of A2aR+ NK cells” value turned out to be 0.69% and the “% of A2aR+ NKT cells” value was 0.46%. Also, in assay [3] (human 2 PBMC), the “% of A2aR+ CD4+ T cells” value is recorded as 0.44%, the “% of A2aR+ CD8+ T cells” value stood at 0.04%, the “% of A2aR+ NK cells” value is on record as 0.75% and the “% of A2aR+ NKT cells” value is reported as 0.55%. The “binding to human T cells (CD4, CD8), NK cells and NKT cells” value in assay [3] was “bound to various human and cynomolgus CD4+ and CD8+ T cells”. In addition, in the assay with human A2aR, the “blocking of the activities of human A2aR expressed on cell surface (RLU, FIG. 1A, 1B)” value is on record as “blocked the activities of human A2aR expressed on cell surface”. In addition, in assay [4], the “% of cells CD25+, CD4 T cells” value was found to be 61.5%; the “% of cells CD25+, CD8 T cells” value was 36%; the “% of cells CD69+, CD4 T cells” value was 57.9%; the “% of cells CD69+, CD8 T cells” value is on record as 54.5%.

B2: Hu3F6-H5/Hu3F6-L5: humanized anti-A2aR IgG1 FES antibody; HCVR SEQ ID NO:62, LCVR SEQ ID NO:80 (antibody, V domains shown)
VH: EVQLVQSGAEVKKPGASVKVSCKTSGFAFTSYWMNWVRQAPGQGLEWIGRIDPSDSEAHYAHKFWGRATLTVDKSSSTVYMELSSLRSEDTAVYYCLRSLYGKGDYWGHGTTVTVSS
VL: DVVMTQTPLSLSVTPGQPASISCRSSQSLVHRNGNTYLEWYLQKPGQSPQLLIYKVSNRFSGVPDRFSGSGSGTDFTLKISRVEAEDVGVYYCYQGSHVPLTFGGGTKVEIK
Regarding B2, in assay [1], the “% of cells IFNγ+, CD4 T cells” value turned out to be 4.29%; the “% of cells IFNγ+, CD8 T cells” value was 14.8%; the “% of cells IFNγ+, NK cells” value stood at 16.6%; the “% of cells IL-2+, CD4 T cells” value came to 13.2%. Further, in assay [1], the “% of cells IL-2+, CD8 T cells” value came out at 2.98%; the “restored production of IFN-γ and IL-2 by NECA-suppressed CD8 T cell” value is “restored production of IFN-γ and IL-2 by NECA-suppressed CD8 T cell, with higher potency”; the “restored production of IFN-γ and IL-2 by NECA-suppressed NK cells” value was “restored production of IFN-γ and IL-2 by NECA-suppressed NK cells, with a potency higher”. Further, the “internalization upon binding to cell surface A2aR (percentage of internalization, FIG. 2)” value in assay [2] is listed as “induce internalization upon binding to cell surface A2aR”. For the same molecule, in assay [3] (human 1 PBMC), the “% of A2aR+ CD8+ T cells” value was determined as 0.05%, the “% of A2aR+ NK cells” value is 0.66% and the “% of A2aR+ NKT cells” value came out at 0.42%. For the same molecule, in assay [3] (human 2 PBMC), the “% of A2aR+ CD8+ T cells” value is 0.03%, the “% of A2aR+ NK cells” value is given as 0.62% and the “% of A2aR+ NKT cells” value turned out to be 0.48%. Moreover, the “binding to human T cells (CD4, CD8), NK cells and NKT cells” value in assay [3] is “bound to various human and cynomolgus CD4+ and CD8+ T cells”. In the assay with human A2aR, the “blocking of the activities of human A2aR expressed on cell surface (RLU, FIG. 1A, 1B)” value was “blocked the activities of human A2aR expressed on cell surface”. Also, in assay [4], the “% of cells CD25+, CD4 T cells” value stood at 62.5%; the “% of cells CD25+, CD8 T cells” value was 35.8%; the “% of cells CD69+, CD4 T cells” value stood at 58.1%; the “% of cells CD69+, CD8 T cells” value is 56.1%.
